molecular target: acetylcholine receptor on acetylcholine receptor-overexpressing TE671 cells; experiment: cell-based or functional assay

| Binder | inhibition of acetylcholine receptors (calcium imaging with Fura-2-AM, TE671 cells, nicotine 400 uM) [µM] |
| --- | --- |
| RRGVRR [6mer-1-210] | 10 |
| KWRQKR [6mer-2-233] | 10 |
| RSYSR [5mer-311] | 10 |
| RWRYKR [6mer-2-136] | 10 |
| RKRIRR [6mer-1-43] | 10 |
| RRQRR [5mer-73] | 10 |

Source: patent publication US20250011363A1 (published 2025)
